Data reported in PMC4407904, “Increased Expression of the Large Conductance, Calcium-Activated K^+ (BK) Channel in Adult-Onset Neuronal Ceroid Lipofuscinosis” (PLoS ONE, 2015).

Molecular target: the molecule itself
Assay: SDS-PAGE and immunoblot of detergent-resistant oligomers; soluble CAD cell lysates (1% Triton X-100, 0.1% SDS lysis buffer) 24-72 h after transient transfection; blots with anti-myc, anti-flag or anti-CSPα

B1: myc-tagged wild type cysteine string protein (CSPα) (natural protein, UniProt P60905 1-198, looked up)
chain: MADQRQRSLSTSGESLYHVLGLDKNATSDDIKKSYRKLALKYHPDKNPDNPEAADKFKEINNAHAILTDATKRNIYDKYGSLGLYVAEQFGEENVNTYFVLSSWWAKALFVVCGLLTCCYCCCCLCCCFNCCCGKCKPKAPEGEETEFYVSPEDLEAQLQSDEREATDTPIVIQPASATETTQLTADSHPSYHTDGFN
notes: Cysteine string protein alpha (CSPα, DnaJC5), wild type; Seen on blots as an unpalmitoylated 26 kDa species, a palmitoylated 35 kDa monomer and a 70 kDa dimer; rat cDNA is surmised; also called WTCSPα; myc-CSPα; source: CAD cells, transiently transfected, in lysate
  stoichiometry N: 2
